Laboratory results reported in the supplement of paper PMC7877785.
± gives the uncertainty stated by the source.

Assay: self-splicing fitness, log relative to wild type (ln ratio); higher = more splicing; Tetrahymena group I intron in knt gene, E. coli kanamycin selection, DiMSum; sequences stand for … in CUCUCU…GGAGGGAAAAGUUAUCAGGCAUGCACCUGGUAGCUAGUCUUUAAACCAAUAGAUUGCAUCGGUUUAAAAGGCAAGACCGUCAAAUUGCGGGAAAGGGGUCAACAGCCGUUCAGUACCAAGUCUCAGGGGAAACUUUGAGAUGGCCUUGCAAAGGGUAUGGUAAUAAGCUGACGGACAUGGUCCUAACCACGCAGCCAAGUCCUAAGUCAACAGAUCUUCUGUUGAUAUGGAUGCAGUUCACAGACUAAAUGUCGGUCGGGGAAGAUGUAUUCUUCUCAUAAGAUAUAGUCGGACCUCUCCUUAAUGGGAGCUAGCGGAUGAAGUGAUGCAACACUGGAGCCGCUGGGAACUAAUUUGUAUGCGAAAGUAUAUUGAUUAGUUUUGGAGUACUCGUGGUCG
Summary of the method: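 Fitness was computed with DiMSum as the error-weighted combination of replicate fold changes, kanamycin versus none, each normalised to wild type. The library randomised all eight intron nucleotides of the P1ex region, with the intron placed in the knt kanamycin-resistance gene on pET-22b(+) in E. coli BL21(DE3). Six replicate transformations were grown overnight at 37°C or 30°C on LB agar with or without 25 μg/mL kanamycin, plus 100 μg/mL carbenicillin, 50 μM IPTG and 0.2% rhamnose. Pooled colonies were amplicon-sequenced on an Illumina HiSeq 2500.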

| Sequence | self-splicing fitness (ln) (30 °C) | self-splicing fitness (ln) (37 °C) |
| --- | --- | --- |
| AUCUAGCAAUAUUACGACCU | -0.471 ± 0.11 | 0.729 ± 0.12 |
| AUCUAGCAAUAUUACGACGA | -0.367 ± 0.12 | -0.44 ± 0.12 |
| AUCUAGCAAUAUUACGACGU | 0.175 ± 0.057 | 0.669 ± 0.069 |
| AUCUAGCAAUAUUACGCAAG | -1.46 ± 0.17 | -1.29 ± 0.18 |
| AUCUAGCAAUAUUACGCACG | -1.37 ± 0.15 | -0.353 ± 0.14 |
| AUCUAGCAAUAUUACGCCUG | -0.828 ± 0.16 | -1.39 ± 0.23 |
| AUCUAGCAAUAUUACGCCUU | -0.764 ± 0.073 | 0.116 ± 0.095 |
| AUCUAGCAAUAUUACGCGGG | -3.32 ± 0.26 | -2.12 ± 0.23 |
| AUCUAGCAAUAUUACGCGUU | -1.76 ± 0.096 | -0.994 ± 0.1 |
| AUCUAGCAAUAUUACGCUCC | -0.7 ± 0.18 | -0.736 ± 0.25 |
| AUCUAGCAAUAUUACGCUGC | -2.92 ± 0.24 | -1.66 ± 0.18 |
| AUCUAGCAAUAUUACGCUUC | -3.91 ± 0.36 | -2.03 ± 0.23 |
| AUCUAGCAAUAUUACGGAAC | -4.03 ± 0.37 | -1.75 ± 0.24 |
| AUCUAGCAAUAUUACGGCCC | 0.132 ± 0.2 | -0.0846 ± 0.33 |
| AUCUAGCAAUAUUACGGCUC | -0.871 ± 0.16 | -0.185 ± 0.19 |
| AUCUAGCAAUAUUACGGGAA | -0.643 ± 0.13 | -0.903 ± 0.14 |
| AUCUAGCAAUAUUACGGUCA | -1.31 ± 0.15 | -0.841 ± 0.14 |
| AUCUAGCAAUAUUACGUUAC | -1.99 ± 0.27 | -1.74 ± 0.34 |
| AUGAAGCAAUAUUACGAAGA | -1.9 ± 0.13 | -0.83 ± 0.16 |
| AUGAAGCAAUAUUACGAGAA | -3.53 ± 0.27 | -1.07 ± 0.16 |
| AUGAAGCAAUAUUACGAGCC | -3.01 ± 0.38 | -3.27 ± 0.38 |
| AUGAAGCAAUAUUACGAGGA | -1.44 ± 0.14 | -2.6 ± 0.2 |
| AUGAAGCAAUAUUACGAUGC | -1.95 ± 0.13 | -0.813 ± 0.17 |
| AUGAAGCAAUAUUACGCAGG | -0.47 ± 0.12 | -0.916 ± 0.14 |

| Sequence | self-splicing fitness (ln) (30 °C) | self-splicing fitness (ln) (37 °C) |
| --- | --- | --- |
| AUGAAGCAAUAUUACGCAUC | -4.84 ± 0.29 | -2.45 ± 0.17 |
| AUGAAGCAAUAUUACGCCCU | 0.921 ± 0.15 | 0.202 ± 0.17 |
| AUGAAGCAAUAUUACGCGAC | -2.1 ± 0.15 | -1.96 ± 0.27 |
| AUGAAGCAAUAUUACGCGAG | -0.689 ± 0.09 | -0.225 ± 0.099 |
| AUGAAGCAAUAUUACGCGAU | -2.89 ± 0.21 | -1.59 ± 0.23 |
| AUGAAGCAAUAUUACGGAAC | -0.855 ± 0.098 | -1.24 ± 0.15 |
| AUGAAGCAAUAUUACGGACC | -0.516 ± 0.22 | 0.108 ± 0.23 |
| AUGAAGCAAUAUUACGGCCC | -0.0924 ± 0.12 | 0.156 ± 0.17 |
| AUGAAGCAAUAUUACGGCUC | -0.602 ± 0.12 | 0.254 ± 0.13 |
| AUGAAGCAAUAUUACGUACU | 0.105 ± 0.096 | 0.581 ± 0.11 |
| AUGAAGCAAUAUUACGUCUC | -1.1 ± 0.14 | -1.22 ± 0.14 |
| AUGAAGCAAUAUUACGUGCA | -0.0826 ± 0.093 | 0.364 ± 0.11 |
| AUGAAGCAAUAUUACGUUAA | -1.51 ± 0.084 | -0.908 ± 0.1 |
| AUGAAGCAAUAUUACGUUAC | -1.96 ± 0.13 | -2.38 ± 0.24 |
| AUGAAGCAAUAUUACGUUAU | -0.343 ± 0.071 | -0.555 ± 0.096 |
| AUGCAGCAAUAUUACGAAAA | – | -2.23 ± 0.42 |
| AUGCAGCAAUAUUACGAAGU | -2 ± 0.15 | -1.75 ± 0.12 |
| AUGCAGCAAUAUUACGAUCC | -1.78 ± 0.22 | -0.259 ± 0.29 |
| AUGCAGCAAUAUUACGAUGG | -3.04 ± 0.21 | -2.94 ± 0.27 |
| AUGCAGCAAUAUUACGCAAU | -2.65 ± 0.12 | -1.98 ± 0.13 |
| AUGCAGCAAUAUUACGCAGC | – | -1.91 ± 0.46 |
| AUGCAGCAAUAUUACGCCAG | -2.18 ± 0.13 | -1.23 ± 0.17 |
| AUGCAGCAAUAUUACGCCGU | -1.25 ± 0.069 | -0.859 ± 0.083 |
| AUGCAGCAAUAUUACGCCUU | -0.919 ± 0.072 | -0.304 ± 0.095 |

| Sequence | self-splicing fitness (ln) (30 °C) | self-splicing fitness (ln) (37 °C) |
| --- | --- | --- |
| AUGCAGCAAUAUUACGCGCC | -0.788 ± 0.15 | -0.038 ± 0.16 |
| AUGCAGCAAUAUUACGCUAA | -0.813 ± 0.13 | -0.31 ± 0.12 |
| AUGCAGCAAUAUUACGUGGU | -2.7 ± 0.095 | -2.18 ± 0.1 |
| AUGGAGCAAUAUUACGACAG | -2.74 ± 0.28 | -0.415 ± 0.28 |
| AUGGAGCAAUAUUACGACGC | -1.44 ± 0.16 | -0.789 ± 0.19 |
| AUGGAGCAAUAUUACGAUCA | – | -1.09 ± 0.25 |
| AUGGAGCAAUAUUACGAUGC | -2.15 ± 0.37 | -2.04 ± 0.35 |
| AUGGAGCAAUAUUACGCAUG | -2.5 ± 0.34 | -2.36 ± 0.25 |
| AUGGAGCAAUAUUACGCCGA | -2.82 ± 0.32 | -2.87 ± 0.48 |
| AUGGAGCAAUAUUACGCGGA | -2.73 ± 0.29 | -1.34 ± 0.22 |
| AUGGAGCAAUAUUACGGAAU | -2.66 ± 0.32 | -2.02 ± 0.47 |
| AUGGAGCAAUAUUACGGCAU | -0.641 ± 0.16 | -0.53 ± 0.16 |
| AUGGAGCAAUAUUACGGCCA | -1.49 ± 0.18 | -0.494 ± 0.21 |
| AUGGAGCAAUAUUACGGCCC | -1.13 ± 0.24 | -1.43 ± 0.31 |
| AUGGAGCAAUAUUACGGGCG | -3.21 ± 0.26 | -2.63 ± 0.44 |
| AUGGAGCAAUAUUACGGUAG | -3.61 ± 0.33 | -2.51 ± 0.41 |
| AUGGAGCAAUAUUACGGUCA | -2.19 ± 0.24 | -0.926 ± 0.2 |
| AUGGAGCAAUAUUACGUCCC | 0.0307 ± 0.46 | -0.013 ± 0.42 |
| AUGGAGCAAUAUUACGUGGG | -3.61 ± 0.37 | -0.89 ± 0.27 |
| AUGGAGCAAUAUUACGUUUC | -3.47 ± 0.21 | -2.68 ± 0.26 |
| AUGUAGCAAUAUUACGACCU | -0.739 ± 0.28 | -0.136 ± 0.34 |
| AUGUAGCAAUAUUACGAGUC | -2.95 ± 0.23 | -3.28 ± 0.4 |
| AUGUAGCAAUAUUACGCCAG | -3.46 ± 0.31 | -1.05 ± 0.31 |
| AUGUAGCAAUAUUACGCGAU | -2.09 ± 0.2 | -2.55 ± 0.24 |

| Sequence | self-splicing fitness (ln) (30 °C) | self-splicing fitness (ln) (37 °C) |
| --- | --- | --- |
| AUGUAGCAAUAUUACGCGCU | -0.77 ± 0.14 | -0.00271 ± 0.15 |
| AUGUAGCAAUAUUACGCGGC | -4.15 ± 0.4 | -3.45 ± 0.27 |
| AUGUAGCAAUAUUACGCUCA | -0.372 ± 0.075 | -0.2 ± 0.1 |
| AUGUAGCAAUAUUACGCUCC | -0.373 ± 0.28 | -0.973 ± 0.45 |
| AUGUAGCAAUAUUACGCUGU | -2.92 ± 0.12 | -1.12 ± 0.11 |
| AUGUAGCAAUAUUACGCUUU | -3.23 ± 0.15 | -1.29 ± 0.11 |
| AUGUAGCAAUAUUACGGCGG | -0.915 ± 0.19 | -1.14 ± 0.23 |
| AUGUAGCAAUAUUACGGUAG | -4.38 ± 0.32 | -3.33 ± 0.42 |
| AUGUAGCAAUAUUACGGUCC | -1.32 ± 0.1 | 0.341 ± 0.12 |
| AUGUAGCAAUAUUACGUCAA | -2.9 ± 0.3 | -2.98 ± 0.35 |
| AUGUAGCAAUAUUACGUCGU | -3.28 ± 0.24 | -0.241 ± 0.12 |
| AUGUAGCAAUAUUACGUGGU | – | -1.53 ± 0.17 |
| AUGUAGCAAUAUUACGUGUG | -3.33 ± 0.23 | -2.53 ± 0.15 |
| AUUAAGCAAUAUUACGAACA | -1.43 ± 0.14 | -0.718 ± 0.17 |
| AUUAAGCAAUAUUACGACCU | -0.144 ± 0.17 | 0.145 ± 0.18 |
| AUUAAGCAAUAUUACGACUA | -1.05 ± 0.12 | -0.207 ± 0.15 |
| AUUAAGCAAUAUUACGAUAC | -1.93 ± 0.11 | -0.885 ± 0.15 |
| AUUAAGCAAUAUUACGAUUC | -1.89 ± 0.1 | -0.797 ± 0.12 |
| AUUAAGCAAUAUUACGAUUU | -0.227 ± 0.091 | 1.04 ± 0.12 |
| AUUAAGCAAUAUUACGCACC | -1.52 ± 0.19 | 0.0961 ± 0.28 |
| AUUAAGCAAUAUUACGCAGU | -3.15 ± 0.21 | -2.48 ± 0.21 |
| AUUAAGCAAUAUUACGCCCC | -1.21 ± 0.31 | 0.0189 ± 0.48 |
| AUUAAGCAAUAUUACGCUAU | -3.62 ± 0.26 | -1.73 ± 0.26 |
| AUUAAGCAAUAUUACGGAAA | -2.98 ± 0.29 | -1.77 ± 0.26 |
